Results from article doi:10.1101/2020.05.19.105320.
Blank lines part the entries; values can stand above or below the molecule they belong to.

Molecular target: H10CLPX Zinc binding domain (CLPXZBD) (human)
Experiment: SEC

stoichiometry N: 2
Molecule: H10CLPX Zinc binding domain (CLPXZBD) (domain or fragment)

stoichiometry N: 1
B1: H10PDIP38 (PDIP38 with an N-terminal H10-tag) (natural protein)
chain: SSRNRPEGKVLETVGVFEVPKQNGKYETGQLFLHSIFGYRGVVLFPWQARLYDRDVASAAPEKAENPAGHGSKEVKGKTHTYYQVLIDARDCPHISQRSQTEAVTFLANHDDSRALYAIPGLDYVSHEDILPYTSTDQVPIQHELFERFLLYDQTKAPPFVARETLRAWQEKNHPWLELSDVHRETTENIRVTVIPFYMGMREAQNSHVYWWRYCIRLENLDSDVVQLRERHWRIFSLSGTLETVRGRGVVGREPVLSKEQPAFQYSSHVSLQASSGHMWGTFRFERPDGSHFDVRIPPFSLESNKDEKTPPSGLHW
